Results taken from article PMC10127277 (2023).

Experiments:
Assay in all cases: SPR
RNF130-A1 = biological target: RNF130-A1
RNF43-A7 = biological target: RNF43-A7
ZNRF3-A10 = biological target: ZNRF3-A10

B1: human RNF130 (GOLIATH) extracellular domain (domain or fragment)
chain: DNASQEYYTALINVTVQEPGRGAPLTFRIDRGRYGLDSPKAEVRGQVLAPLPLHGVADHLGCDPQTRFFVPPNIKQWIALLQRGNCTFKEKISRAAFHNAVAVVIYNNKSKEEPVTMTHPGTGDIIAVMITELRGKDILSYLEKNISVQMTIAVGTRMPPKNFSRGS
modifications: biotinylated (BirA ligase)
B1 was tested, and the Kd (RNF130-A1) was 8.2 nM.

B2: human RNF43 extracellular domain (domain or fragment)
chain: GFGRTGLVLAAAVESERSAEQKAIIRVIPLKMDPTGKLNLTLEGVFAGVAEITPAEGKLMQSHPLYLCNASDDDNLEPGFISIVKLESPRRAPRPCLSLASKARMAGERGASAVLFDITEDRAAAEQLQQPLGLTWPVVLIWGNDAEKLMEFVYKNQKAHVRIELKEPPAWPDY
modifications: biotinylated (BirA ligase)
Binder B2 has a Kd (RNF43-A7) of 3.8 nM.

B3: human ZNRF3 extracellular domain (domain or fragment)
chain: KETAFVEVVLFESSPSGDYTTYTTGLTGRFSRAGATLSAEGEIVQMHPLGLCNNNDEEDLYEYGWVGVVKLEQPELDPKPCLTVLGKAKRAVQRGATAVIFDVSENPEAIDQLNQGSEDPLKRPVVYVKGADAIKLMNIVNKQKVARARIQHRPPRQPTEYFDM
modifications: biotinylated (BirA ligase)
With B3 the Kd (ZNRF3-A10) was 0.7 nM.
